These results are taken from patent US5455329A, “DNA sequences coding for PTH variants, PTH variants, expression vector, bacterial host, use and therapeutic composition” (Gesellschaft fur Biotechnologische Forschung mbH (GBF), priority 1989, dated 1995).

Data set [1] concerns adenylate cyclase in isolated membranes of porcine adrenal cortices. The data set is described as follows: Stimulation of adenylate cyclase in isolated membranes, in vitro test according to Mohr and Hesch. The format is biochemical. To be noted: for Adenylate cyclase (%) relative activity: relative to recombinant hPTH (=100), stimulation beyond the base level; for Effect on adenylate cyclase stimulation (in words, group classification): qualitative, versus wild type PTH. How it is done:
The PTH variants so obtained were tested for their ability to stimulate adenylate cyclase in isolated membranes of porcine adrenal cortices in an in vitro test according to Mohr and Hesch (Biochem. J., 188 (1980) 649-656) .

Data set [2] deals with embryonal chicken chondrocytes. As to the kind of experiment: Increase of DNA synthesis of embryonal chicken chondrocytes. It is filed as cell-based. To be noted: for DNA synthesis (%) relative activity: relative to recombinant hPTH (=100), stimulation beyond the base level, chondrocytes; for Effect on stimulation of DNA synthesis (in words, group classification): qualitative, versus wild type PTH. How it is done: They were also tested for their ability, according to DE-A-37 25 319.0 and DE-A-37 25 320.4, to increase the DNA synthesis of embryonal chicken chondrocytes.

Turning to “rec-hPTH: recombinant human parathyroid hormone wild type, lengthened N-terminally by one proline residue; reference = 100 % [reference compound]”, in data set [1], the “Adenylate cyclase (%) relative activity” value came out at 100%. The “DNA synthesis (%) relative activity” value in data set [2] was 100%.

B1: Q29N: hPTH variant Gln(29) -> Asn(29), lengthened N-terminally by one proline (protein, UniProt P01270 32-115, looked up, variant Q29N)
Parathyroid hormone: SVSEIQLMHNLGKHLNSMERVEWLRKKLNDVHNFVALGAPLAPRDAGSQRPRKKEDNVLVESHEKSLGEADKADVNVLTKAKSQ
modifications: Parathyroid hormone N-terminal proline extension
notes: hPTH variant Gln(29) -> Asn(29), lengthened N-terminally by one proline
In the case of B1, in data set [1], the “Effect on adenylate cyclase stimulation (in words, group classification)” value (from here on “Effect on adenylate cyclase stimulation”) is on record as “maintain the stimulation” and the “Adenylate cyclase (%) relative activity” value came out at 99%. In data set [2], the “Effect on stimulation of DNA synthesis (in words, group classification)” value (“Effect on stimulation of DNA synthesis” below) is given as “maintain the stimulation” and the “DNA synthesis (%) relative activity” value was determined as 95%.

B2: K27L: hPTH variant Lys(27) -> Leu(27), lengthened N-terminally by one proline (protein, UniProt P01270 32-115, looked up, variant K27L)
Parathyroid hormone: SVSEIQLMHNLGKHLNSMERVEWLRKLLQDVHNFVALGAPLAPRDAGSQRPRKKEDNVLVESHEKSLGEADKADVNVLTKAKSQ
modifications: Parathyroid hormone N-terminal proline extension
notes: hPTH variant Lys(27) -> Leu(27), lengthened N-terminally by one proline
For the molecule B2, in data set [1], the “Effect on adenylate cyclase stimulation” value is “significant reduction in adenylate cyclase stimulation” and the “Adenylate cyclase (%) relative activity” value is listed as 35%. Also, in data set [2], the “Effect on stimulation of DNA synthesis” value is “increase in DNA synthesis” and the “DNA synthesis (%) relative activity” value turned out to be 70%.

B3: K13P: hPTH variant Lys(13) -> Pro(13), lengthened N-terminally by one proline (protein, UniProt P01270 32-115, looked up, variant K13P)
Parathyroid hormone: SVSEIQLMHNLGPHLNSMERVEWLRKKLQDVHNFVALGAPLAPRDAGSQRPRKKEDNVLVESHEKSLGEADKADVNVLTKAKSQ
modifications: Parathyroid hormone N-terminal proline extension
notes: hPTH variant Lys(13) -> Pro(13), lengthened N-terminally by one proline
Consider B3, for which, in data set [1], the “Effect on adenylate cyclase stimulation” value is “significant reduction in adenylate cyclase stimulation” and the “Adenylate cyclase (%) relative activity” value is 6%. Also, in data set [2], the “Effect on stimulation of DNA synthesis” value is recorded as “increase in DNA synthesis” and the “DNA synthesis (%) relative activity” value is 88%.

B4: L11K: hPTH variant Leu(11) -> Lys(11), lengthened N-terminally by one proline (protein, UniProt P01270 32-115, looked up, variant L11K)
Parathyroid hormone: SVSEIQLMHNKGKHLNSMERVEWLRKKLQDVHNFVALGAPLAPRDAGSQRPRKKEDNVLVESHEKSLGEADKADVNVLTKAKSQ
modifications: Parathyroid hormone N-terminal proline extension
notes: hPTH variant Leu(11) -> Lys(11), lengthened N-terminally by one proline
As to B4, in data set [1], the “Effect on adenylate cyclase stimulation” value was “maintain the stimulation of adenylate cyclase” and the “Adenylate cyclase (%) relative activity” value is reported as 89%. Further, in data set [2], the “Effect on stimulation of DNA synthesis” value is recorded as “reduce that of DNA synthesis” and the “DNA synthesis (%) relative activity” value turned out to be 21%.

B5: Q29A: hPTH variant Gln(29) -> Ala(29), lengthened N-terminally by one proline (protein, UniProt P01270 32-115, looked up, variant Q29A)
Parathyroid hormone: SVSEIQLMHNLGKHLNSMERVEWLRKKLADVHNFVALGAPLAPRDAGSQRPRKKEDNVLVESHEKSLGEADKADVNVLTKAKSQ
modifications: Parathyroid hormone N-terminal proline extension
notes: hPTH variant Gln(29) -> Ala(29), lengthened N-terminally by one proline
Consider B5, for which, in data set [1], the “Effect on adenylate cyclase stimulation” value is recorded as “substantial retention of the effect on adenylate cyclase” and the “Adenylate cyclase (%) relative activity” value is reported as 104%. Further, in data set [2], the “Effect on stimulation of DNA synthesis” value is reported as “significant reduction in the stimulation of DNA synthesis” and the “DNA synthesis (%) relative activity” value is recorded as 8%.

B6: R20E: hPTH variant Arg(20) -> Glu(20), lengthened N-terminally by one proline (protein, UniProt P01270 32-115, looked up, variant R20E)
Parathyroid hormone: SVSEIQLMHNLGKHLNSMEEVEWLRKKLQDVHNFVALGAPLAPRDAGSQRPRKKEDNVLVESHEKSLGEADKADVNVLTKAKSQ
modifications: Parathyroid hormone N-terminal proline extension
notes: hPTH variant Arg(20) -> Glu(20), lengthened N-terminally by one proline
As to B6, in data set [1], the “Effect on adenylate cyclase stimulation” value is “significant reduction in adenylate cyclase stimulation” and the “Adenylate cyclase (%) relative activity” value is on record as 0%. Also, in data set [2], the “Effect on stimulation of DNA synthesis” value is “unaffected DNA synthesis” and the “DNA synthesis (%) relative activity” value came to 0%.

B7: K27R: hPTH variant Lys(27) -> Arg(27), lengthened N-terminally by one proline (protein, UniProt P01270 32-115, looked up, variant K27R)
Parathyroid hormone: SVSEIQLMHNLGKHLNSMERVEWLRKRLQDVHNFVALGAPLAPRDAGSQRPRKKEDNVLVESHEKSLGEADKADVNVLTKAKSQ
modifications: Parathyroid hormone N-terminal proline extension
notes: hPTH variant Lys(27) -> Arg(27), lengthened N-terminally by one proline
Regarding B7, in data set [1], the “Effect on adenylate cyclase stimulation” value is given as “maintain the stimulation” and the “Adenylate cyclase (%) relative activity” value was 90%. Moreover, in data set [2], the “Effect on stimulation of DNA synthesis” value is “maintain the stimulation” and the “DNA synthesis (%) relative activity” value came out at 81%.

B8: H32L: hPTH variant His(32) -> Leu(32), lengthened N-terminally by one proline (protein, UniProt P01270 32-115, looked up, variant H32L)
Parathyroid hormone: SVSEIQLMHNLGKHLNSMERVEWLRKKLQDVLNFVALGAPLAPRDAGSQRPRKKEDNVLVESHEKSLGEADKADVNVLTKAKSQ
modifications: Parathyroid hormone N-terminal proline extension
notes: hPTH variant His(32) -> Leu(32), lengthened N-terminally by one proline
Turning to B8, in data set [1], the “Effect on adenylate cyclase stimulation” value is “substantial retention of the effect on adenylate cyclase” and the “Adenylate cyclase (%) relative activity” value was found to be 93%. Besides, in data set [2], the “Effect on stimulation of DNA synthesis” value is “significant reduction in the stimulation of DNA synthesis” and the “DNA synthesis (%) relative activity” value came out at 11%.

B9: E4R, R20E: hPTH variant Glu(4) Arg(20) -> Arg(4), Glu(20), lengthened N-terminally by one proline (protein, UniProt P01270 32-115, looked up, variant E4R R20E)
Parathyroid hormone: SVSRIQLMHNLGKHLNSMEEVEWLRKKLQDVHNFVALGAPLAPRDAGSQRPRKKEDNVLVESHEKSLGEADKADVNVLTKAKSQ
modifications: Parathyroid hormone N-terminal proline extension
notes: hPTH variant Glu(4) Arg(20) -> Arg(4), Glu(20), lengthened N-terminally by one proline
For B9, in data set [1], the “Effect on adenylate cyclase stimulation” value is recorded as “significant reduction in adenylate cyclase stimulation” and the “Adenylate cyclase (%) relative activity” value turned out to be 20%. Moreover, in data set [2], the “Effect on stimulation of DNA synthesis” value is on record as “increase in DNA synthesis” and the “DNA synthesis (%) relative activity” value is given as 58%.

B10: E4R: hPTH variant Glu(4) -> Arg(4), lengthened N-terminally by one proline (protein, UniProt P01270 32-115, looked up, variant E4R)
Parathyroid hormone: SVSRIQLMHNLGKHLNSMERVEWLRKKLQDVHNFVALGAPLAPRDAGSQRPRKKEDNVLVESHEKSLGEADKADVNVLTKAKSQ
modifications: Parathyroid hormone N-terminal proline extension
notes: hPTH variant Glu(4) -> Arg(4), lengthened N-terminally by one proline
B10: in data set [1], the “Effect on adenylate cyclase stimulation” value was “significant reduction in adenylate cyclase stimulation” and the “Adenylate cyclase (%) relative activity” value was determined as 47%. Also, in data set [2], the “Effect on stimulation of DNA synthesis” value is reported as “increase in DNA synthesis” and the “DNA synthesis (%) relative activity” value is recorded as 88%.

B11: H32K: hPTH variant His(32) -> Lys(32), lengthened N-terminally by one proline (protein, UniProt P01270 32-115, looked up, variant H32K)
Parathyroid hormone: SVSEIQLMHNLGKHLNSMERVEWLRKKLQDVKNFVALGAPLAPRDAGSQRPRKKEDNVLVESHEKSLGEADKADVNVLTKAKSQ
modifications: Parathyroid hormone N-terminal proline extension
notes: hPTH variant His(32) -> Lys(32), lengthened N-terminally by one proline
With B11, in data set [1], the “Effect on adenylate cyclase stimulation” value was “substantial retention of the effect on adenylate cyclase” and the “Adenylate cyclase (%) relative activity” value is given as 85%. Also, in data set [2], the “Effect on stimulation of DNA synthesis” value was “significant reduction in the stimulation of DNA synthesis” and the “DNA synthesis (%) relative activity” value was determined as 22%.

B12: H32R: hPTH variant His(32) -> Arg(32), lengthened N-terminally by one proline (protein, UniProt P01270 32-115, looked up, variant H32R)
Parathyroid hormone: SVSEIQLMHNLGKHLNSMERVEWLRKKLQDVRNFVALGAPLAPRDAGSQRPRKKEDNVLVESHEKSLGEADKADVNVLTKAKSQ
modifications: Parathyroid hormone N-terminal proline extension
notes: hPTH variant His(32) -> Arg(32), lengthened N-terminally by one proline
As to B12, in data set [1], the “Effect on adenylate cyclase stimulation” value is given as “substantial retention of the effect on adenylate cyclase” and the “Adenylate cyclase (%) relative activity” value is 87%. In addition, in data set [2], the “Effect on stimulation of DNA synthesis” value is on record as “significant reduction in the stimulation of DNA synthesis” and the “DNA synthesis (%) relative activity” value stood at 36%.
